Data on 42 variants can be found in the RNAGym collection of RNA variant scans (doi:10.1073/pnas.2313332121).

To fix the notation:
B1: TPR t1 (parent)
chain: GACCAAUCUGCCCUCAGAGCUCGAGAACAUCUUCGGAUGCAGAGGAGGCAGGCUUCGGUGGCGCGAUAGCGCCAACGUCCUCAACCUCCAAUGCAUCCCACCACAUGAUGAUGCCUGAAGAGCCUUGGUUUUUUG

Variants of B1 are the subject of the data set. Description: polymerase ribozyme fitness, log enrichment relative to wild type (log ratio); higher = more active; in vitro selection for triplet polymerase activity. The method, boiled down:
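Mutant libraries of each subunit of a heterodimeric triplet polymerase ribozyme were built by PCR and transcribed. Each library went through one round of in vitro selection in triplicate: annealing with biotinylated primer, partner subunit and triplets, frozen incubation at −7 °C, gel excision of extended constructs, streptavidin-bead capture and RT-PCR. Input and output libraries were Illumina-sequenced; only genotypes with ≥10 input reads and ≥1 read per output were kept. Fitness is log2(genotype enrichment/wild-type enrichment), using inverse-variance-weighted replicate averages.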
Regarding GACCAAUCUGCCCUCAGAGCUCGAGAACAUCUUCGGAUGCAGAGGAGGCAGGCUGAGGUGGCGCGAUAGCGCCAACGUGCUCAACCUCCAAUGCAUCCCACCACAUGAUGAUGCCUGAAGAGCUUUGGUUUUUUG, the “polymerase ribozyme fitness (log ratio)” value is -0.518.
As to GACCAAUCUGCCCUCAGAGCUCGAGAACAUCUUCGGAUGCAGAGGAGGCAGGCUUCGGUGGCGCGAUAGGGCCAACGUCCUCAACCUCCAAUGCAUCCCCCCACAUGAUGAUGCCUGAAGAGACUUGGUUUUUUG, the “polymerase ribozyme fitness (log ratio)” value is -4.49.
The same measure for GACCAAUCUGCCCUCAGAGCUCGAGAACAUCUUCGGAUGCAGAGGAGGCAGGCUUUGGUGGCGCGAUAGCGCCAACGUCCUCAACCUCCAAUGCAUCCCACCACAUGAUGAUGCCUGAAGAGCCUGGGUUUUUUG: -1.91; for GACCAAUCUGCCCUCAGAGCUCGAGAACAUCUUCGGAUGUAGAGGAGGCAGAUUUCGGUGGCGCGAUAGCGCCAACGUCCUCAACCUCCAAUGCAUCCCACCACAUGAUGAUGCCUGAAGAGCAUUGGUUUUUUG: 0.594.
The same measure for GACCAAUCUGCCGUCAGAGCUCGAGAACAUCUUCGGAUGCAGAGGAGGCAGGCUUCGGUGGCGCGAUAGCGCCAACGUCCUCAACCUCCAAUGCAUCCCACCACAUGAUGAUGCCUGUAGAGCCUUGGUUUUUUG: -1.02; for GACCAAUCUGCCCUCAGAGCUCGAGAACAUCUUAGGAUGCAGAGGAGGCAGGCUUCGGAGGCGCGAUAGUGCCAACGUCCUCAACCUCCAAUGCAUCCCACCACAUGAUGAUGCCUGAAGAGCCUUGGUUUUUUG: -5.58.
The same measure for GACCAAUGUGCCCUCAUAGCUCGAGAACAUCUUCGGAUGCAGAGGAGACAGGCUUCUGUGGCGCGAUAUCGCCAACGUCCUCAACCUCCAAUGCAUCCCACCACUUGAUGAUGCCUGAAGAGCCUUGGUUUUUUG: -2.21; for GACCAAUCUGCCCUCAGAGCUCGAGAACAUCUUCGGAUGCAGAGGAGGCAGGUUUCCGUGGCGCGAUAGCGCCAACGUCCUCCACCUCCAAUGCAUCCCACCACAUGAUGAUGCCUGAAGAGCCUUGGUUUUUUG: -0.254; for GACCAUUCUGCCCUCAGAGCUCGAGAACAUCUUCGGAUGCAGAGGAGUCAGGCUUCGGUGGCGCGAUAGCGCCAACGUCCCCAACCUCCAAUGCAUCCCACCACAUGAUGAUGCCUGAAGGGCCUUGGUUUUUUG: 0.747.
Consider GACCAAUCUGCCCUCAGAGCUCGAGAACAUCUUCGGAUGCAGAGGAGGCAGGCUUCGGUGGCGCGAUAGCGCCAACGUCCUCAACCUCCAAUGCAUCCCACCACAUGAUGAUGCCUGAAUAGCCUUGGCUUUUUG, for which the “polymerase ribozyme fitness (log ratio)” value is -0.774.
The same measure for GACCAAUCUGCCCUCAGAGCUCGAGAACAUCUUCGGAUGCAGAGGAGGCAGGGUUCGGUGGCGCGAUAGCGCCAACGUCCUCAACCGCCAAUGCAUCCCACCACAUGAUGAUGCCUGAAGAGCCUUGGUUUUUUG: -0.632; for GACCAAUCUGCCCUCAGAGCUCGAGAACAUCUUCGGAUGCAGAGGAGGCAGGCUUCGGUGGCGCGAUAGCGCCAACGUCCUAAACCUCCAAUGCAUCCUACCACAUGAUGAUGCCUGAAGAACCUUGGUUUUUUG: -3.36; for GACCAAUCUGCCCUCAGAGCUCGAGAACAUCUUCGGAUGCAGAUGAGGCAGGCUUCGGUGGCGCGAUAGCGCCAACGUCCUCAACCUCCAAUGCAUCCCACCACAUGAUGAUGCCUGAAUAGCCUUGGUUAUUUG: -1.89.
The same measure for GACCAAUCUGCCCUCAGAGCUCGAGAACAUCUUCGGAUGCAGAGGAGGCAGGCUUCGGUGGCGCGAUAGCGCCAACGUCCUCAGCCUCCAAUUCAUCCCACCACAUGAUGAUGCCUGAAUAGCCUUGGUUUUUUG: -2.23; for GACCAAUCUGCCCUCAGAGCUCGAGAACAUCUUCUGAUGCAGAGGAGGCAGGCUUCGGUGGCGUGAUAGCGCCAACGUCCUCAACCUCCAAUGCAUCCCACCACAUGAUGAUGCCUGAAGAGCCUUGGUUUUUUG: -5.09; for GACCAAUCUGCCCUCAGAGCUCGAGAACAUCUUCGGAUGCAGAGGAGGCAGGCUUCGGUGGCGCGAUAGCGCCCUCGUCCUCAACCUCCAAUGCAUCCCACCACAUGAUAAUGCCUGAAGAGCCUUGGUUUUUUG: -1.52.
Take GCCCAAUCUGCCCUCAGAGCUCGAGAACAUCUUCGGAUGCAGAGGAGGCAGGCUUCGGUGGCGCGAUAGCGCCAACGUCCUCAACCUCCAAUGCAUCUCACCACAUGAUGAUGCCUGAAGAGCCUUGGUUUUUUG: the “polymerase ribozyme fitness (log ratio)” value was -3.19.
For GACCAAUCUGCCCUCAGAGCUCGAGAACAUCUUCGGAUGCAGAGGAGGCAGGCUUCGGUGGCUCGAUAGCGCCAACGUCCUCAACCUCCAAUGCAUCCCACCACAUGAUGAUGCCUGAAGAGCCUUGGUUUCUUG the value was -2.69.
For GACCAAUCUGCCCUCAGACAUCGAGAACAUCUUCGGAUGCAGAGGAGGCAGGCUUCGGUGGCGCGAUAGCACCAACGUCCUCAACCUCCAAUGCUUCCCACUACAUGAUGAUGCCCGAAGAGUCUGGGUUUUUUG the value was -6.03; for GACCAACCUGCCCUCAGAGCUCGAGAACAUCUUCGGAUGCAGAGGAGGCAGGCUUCGGUGGCGCGAUAGCGCCAACGUCCUCAAACUCCAAUGCAUCCCACCAUAUGAUGAUGCCCGAAGAGCCUUGGUUUUUUG, -1.6.
The same measure for GACCAAUCUGCCCUCAGAGCCCGAGAACAUCUUCGGAUGCAGAGGAGGCAGGCUUCGGUGGCCCGAUAGCGCCAACGUCCUCAACCUCCAAUGCAUCCCACCACAUGAUGAUGCCUGAAAAGCCUUGGUUUUUUG: -0.168; for GACCAAUCUGCCCUCAGAGCUCGAGAACAUCUUGGGAUGCAGAGGAGGCGGGCUUCGGUGGCGCGAUAGGGCCUACGUCCUCCACCUCCAAUGCAUCCCACCACAUGAUUAGGCCUGAACAGCCUUGGUUUUUUG: -6.67.
Take GGCCAAUCUGCCCUCAGAGCUCGAGAACAUCUUCGGAUGCAGAGGAGGCAGGAUUCGGUAGCGCGAUAGCGCCAACGUCCUCAACCUCCAAUGCAUCCCACCACCUGAUGAUGCCUGAAGAGCCUUGGUUUUUUG: the “polymerase ribozyme fitness (log ratio)” value was -4.11.
With GACCAAUCUGCUCUCAUAGCUCGAGAACAUCUUCGGAUGCAGAGGAGGCGGGCUUCGGUGGCUCGAUAGCGCCAACGUCCUCAACCUCCAAUGCAUCCCACCACAUGAUGAUGCCUGAAGAGCCUUGGUUUUUUG, the “polymerase ribozyme fitness (log ratio)” value was -3.39.
As to GACCAAUCUGCCCUCAGAGCUCGAGAACAUCUUCGGAUGCAGAGGAGGCAGGCUUCGGUGGCGCGAUAGCGUCAACGUCCUCAACCUCCAAUGCAUCCCACCACAUGAUGAUGCCUUAAGAGCCUUGGUUUUUUG, the “polymerase ribozyme fitness (log ratio)” value was -2.27.
For GACCAAUCUGCACUCAGAGCUCGAGAAAAUCUUCGGAUCCAGAGGAGGCAGGCUUCGGUGGCGCGAUAGCGCCAACGUCCUCAACCUCCAAUGCAUCCCACCACAUGAUGCUGCCUGAAGAACCUUGGUUUUUUG the value was -5.3; for GACCAAUCUGCCCUCAGAGCUCGAGAUCGUCUUCGGAUGCAGAGGAGGCAGGCUUCGGUGGCGCGAUAGCGCCAACGUCCUCAACCUCCAAUGCAUCCCACCACAUGAUGAUGCCUGAAGAACCUUGGUUUUUUG, -3.63; for GACCAAUCUGCCCUCAGAGCUCGAGAACAUCCUUGGAUCCAGAGGAGGCAGGCUUCGGUGGCGCGAUAGCGCCAACGUCCUCAACCUCCAAUGCAUCCCACCACAUGAUGAUGCCUGAAGAGCCUUGGUUUUUUG, -5.23.
The same measure for GACCAAUCUGCCCUCAGAGCUCGAGAACAUCUUCGGAUGCAGAGGAGGCAGGCUUCGGUGGCGCGAUAGCGCCAACGGCCUCAACCUCCAAUGCAUCCCAGCACAUGAUGAUGCCUGAAGAGCCUUGGUUUUUUG: -1.76; for GACCAAUCUGCCCUCAGAGCUCGAGAACAUCUUCGGAUGCAGAGGAGGCAGGCUUCGGUGGCGCGAUAGCGCCAACGUCCUCAACCUCCAAUGAAUCCCACCAAAUGAUGAUGCCUGAAGAGUCUUGGUUUUUUG: -1.42; for GACCAAUCUGCCCUUAGAGCUCGAGAACAUCUUCGGAUGCAGAGGAGGCAGGCUUCGGUGGCGCGAUAGCGCCAACGUCCUCAACCUCCAAUGCAUCCCACCACAUGAUGAUGCCUCAAGAGCCUUGGUUUUUUG: -2.96.
For GACCAAUCUGCCCUCAGAGCUCGAGAACAUCUUCGGAUGCAGAGGAAGCAAGCUUCGGUGGCGCGAUAGCGCCAACGUCCUCAACCUCCAAUGCAUCCCACCACAUGAUGAUGCCUGAAGAGCCUUGGUAUUUUG the value was -4.79; for GACCAAUCUGCCCUCAGAGCUCGAGGACAUCUUCGGAUGCAGAGGAGGCAGGCUUCGGUGGCGCGAUAACGCCAACGUCCUCAACCUCCAAUGCAUCCCACCACAUGAUGAUGCCUGAAGAGCCUUGGUUUUUUG, -4.23.
In the case of GACCAAUCUGCCCUCAGAGCUCGAGAACAUCUUCGGAUGAAGAGGUGGCAGGCUUCGGUGGCGCGAUAUCGCCAACGUCUUCAACCUCCAAUGCAUCCCACCACAUGAUAAGGCCUGAAGAGCCUUGGUUUUUUG, the “polymerase ribozyme fitness (log ratio)” value is -7.41.
The same measure for GAUCAAUCUGCUCUCAGAGCUCGAGAACAUCUUCGGAUGCAGAGGAGGCAGGCUUCGGUGGCGCGAUAGCGUCAACGUCCUCAAACUCCAAUGCAUCCCACCACAUGAUGAUGCCUGAAGAGCCUUGGUUUUUUG: -1.01.
GACCAAUCUGCCCUUAGAGCUCGAGAACAUCUUCGGAUGCAGAGGAGGCAGGCUUCGGUGGAGCGAUAGCGCCAACGUCCUCAACCUCCAAUGCAUCCCACCACAUGAUGAUGCCUGAAGAGCCUUGGUUUUUUG: the “polymerase ribozyme fitness (log ratio)” value was -2.1.
For GACCAACCUGCCCUCAGAGCUCGAGAGCAUCUUCGGAUGCAGAGGAGGCAGGCUUCGGUGGCACGAUAGCGCCAACGUCCUCAACCUCCAAUGCAUCCCACCACAUGAUGAUGCCUGAAGAGCCUUGGUUUUUUG, the “polymerase ribozyme fitness (log ratio)” value is -1.53.
Take GACCAAUCUGCCCUCAGAGCUCGAGAACAUCUUCGGAUGCAGAGGAGGCAGGCUUCGGUGACGCGAUAGCGCCAACGUCCUCAACCUCCAAUGCAGCCCACCACAUGAUGAUGCCUGAAGAGCCUUGGUCUUUUG: the “polymerase ribozyme fitness (log ratio)” value is -0.371.
GACCAAUCUGCCCUCAGAGCUCGAGAACAUCUUCGGAUGCACAGGAGGCAGGCUUCGGUGGCGCGAUAGCGCCAACGUCCUCAACCUCCAAUGCAUCCCACCACAUGAUGAUGCCCGAAGAGCCAUGGUUUUUUG: the “polymerase ribozyme fitness (log ratio)” value was -3.61.
For the variant GACCAAUCUGCCCUCAGAGCUCGAGAACAUCUUCGGAUGCAGAGGAGGCAGGCUUCGGUGGCGCGAUAGCGCCAACGCCCUCAACCUCCAAUGCAUCCCACCACAUGAUGAUGCCUGAAUAGCCUUGGUUUUUUG, the “polymerase ribozyme fitness (log ratio)” value was -0.256.
As to GACCAAUCUGCCCUCAGCGAUCGAGAACAUCUUCGGAUGCAGAGGAGGCAGGCAUCGGUGGCCCGAUAGCGCCAACGUCCUCAACCUCCAAUGCAACCCACCACAUGAUGAUGCCUGAAGAGCCUUGGUUUUUUG, the “polymerase ribozyme fitness (log ratio)” value was -4.09.
For the variant GACCAAUCUGCCCUCAGAGCUCGAGAACAUCUUCGGAUGCAGAGGAGGCAGGCUUCGGUGGCGCGAUAGCGCCAACGUCCUCAACCUCCAAUGCAUCACACCACAUGAUGAUGCCUGAAGAGCAUUGGUUUUUUG, the “polymerase ribozyme fitness (log ratio)” value is -2.34.
